# Test results from PMC7000712, “A kinetic method for measuring agonist efficacy and ligand bias using high resolution biosensors and a kinetic data analysis framework” (Scientific Reports, 2020).
# Columns and labels:
# [1] = system: parathyroid hormone 1 (PTH1) receptor; details: endosomal compartment; cited from earlier work
# Text: The kinetics/dynamics of G-protein-coupled receptor (GPCR) signaling is of increasing interest in elaborating the biology and therapeutic potential of these receptors[1]–[3]. The time frame of GPCR signal transduction is dependent on the signaling pathway, regulation of signaling mechanism, and location of the receptor in the cell (spatiotemporal signaling). Temporal dynamics of signaling are being elucidated and applied to develop new therapeutics. For example, the parathyroid hormone 1 (PTH1) receptor can signal persistently over time after partitioning into the endosomal compartment. Thi ...
# [2] = target: angiotensin AT1 receptor (UniProt P30556)
# [3] = target: T1, angiotensin AT1 receptor (Homo sapiens, UniProt P30556); assay: Ca^2+ mobilization, R-GECO sensor, AT1 receptor, HEK 293 T cells; assay type: cell-based; details: 32 μM; mean kτ of ligand divided by that for AngII
# T1 construct: The unmodified receptor can be used, providing estimates of authentic rather than forced coupling to arrestin; host or cells: HEK 293 T cells, BacMam transduction, CMV promoter
# T1 sequence (P30556 1-359): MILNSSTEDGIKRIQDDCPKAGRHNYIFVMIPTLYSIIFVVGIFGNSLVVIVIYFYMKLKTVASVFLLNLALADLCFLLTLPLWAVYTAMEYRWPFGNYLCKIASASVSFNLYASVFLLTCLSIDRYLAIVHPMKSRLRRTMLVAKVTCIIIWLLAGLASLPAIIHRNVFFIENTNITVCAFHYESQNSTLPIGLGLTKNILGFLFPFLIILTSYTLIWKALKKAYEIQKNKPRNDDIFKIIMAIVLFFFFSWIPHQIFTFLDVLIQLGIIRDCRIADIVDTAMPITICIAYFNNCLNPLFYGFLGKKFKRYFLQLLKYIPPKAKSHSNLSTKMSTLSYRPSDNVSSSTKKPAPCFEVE
# Text: Biased agonism quantification relates the capacity of a ligand to activate one pathway relative to one or more other pathways[9]–[12]. Numerous methods and scales have been developed and successfully applied[8],[47],[53]–[59]. One approach is to compare ligand efficacy, i.e. the capacity of the agonist-occupied receptor to generate the signal. kτ provides such an efficacy value, being the initial rate of signal generation by the agonist-occupied receptor. Here kτ is used to assess signaling bias of the AT1 receptor ligands described above. […] In this study, G-protein signaling and arrestin recruitment was measured using the same fluorescent biosensor assay modality, enabling near-identical conditions to be employed in comparing the pathways. The Gq pathway was quantified at the level of diacylglycerol using the Red Downward DAG sensor[21] (Fig. 5b), and, one step downstream, Ca^2+ mobilization measured using the R-GECO sensor[22] […]
# HEK 293 T cells were cultured in Eagle’s minimum essential media (EMEM) supplemented with 10% fetal bovine serum (FBS) and penicillin-streptomycin at 37 °C in 5% CO2. […] Thirty minutes prior to fluorescence plate reader or imaging experiments, the media in each well was replaced with 150 μL of Dulbecco’s phosphate buffered saline (DPBS) supplemented with Ca^2+ (0.9 mM) and Mg^2+ (0.5 mM). […]
# [4] = target: T1, angiotensin AT1 receptor; assay: Arrestin-3 (β-arrestin2) mNeonGreen biosensor recruitment, AT1 receptor, HEK 293 T cells (time course); assay type: cell-based
# Text: We and others have developed fluorescent biosensors in which intrinsically fluorescent protein sensors have been incorporated. (Three examples used in this study are R-GECO[22] for Ca^2+, Downward DAG for DAG and cADDis for cAMP[21]). The protein sensors have been engineered to be conformationally-sensitive, such that interaction with the signaling molecule of interest changes the optical properties, enabling the interaction to be detected as a change of fluorescence intensity. Since the proteins are intrinsically fluorescent, no chemical tagging or substrate addition is necessary to generate the optical signal. Here this approach was used to develop a biosensor of receptor-arrestin interaction (Fig. 1a).
# We used the kτ method to quantify the kinetics of arrestin recruitment of five AT1 receptor ligands with known varying degrees of arrestin recruitment and bias. The method for quantifying kτ is as follows (illustrated schematically in Supplementary Fig. S5). […] From these fits the fitted parameter values were taken for Plateau and kobs. These values were then multiplied together. […] The data were then fit to the sigmoid curve equation, for example the “log(agonist) vs. response–Variable slope” equation in Prism[46]. From this fit kτ was obtained - it is the value of the asymptote. More precisely, kτ is the Plateau x kobs value for a maximally-effective concentration of ligand.
# All that is required is a time course of response measurement at a single, maximally-stimulating concentration of ligand (maximally-stimulating at all time points). […] The data were fit to the association exponential equation to determine Plateau and kobs. kτ was then calculated - it is the Plateau multiplied by kobs for a maximally-stimulating concentration of ligand, as explained in the Appendix.
# The first biosensors that positioned analyte binding domains in this position used a circularly permuted version of the fluorescent protein, and include the GCaMP and GECO Ca^2+ sensors, the upward and downward DAG sensors, and the caDDis cAMP sensor[21],[22]. More recently it has become clearer that if the termini of the analyte binding domain are close to one another, then the entire binding domain can be inserted into the 7th stave of the fluorescent protein without having to circularly permute the fluorescent protein[60].
# HEK 293 T cells were cultured in Eagle’s minimum essential media (EMEM) supplemented with 10% fetal bovine serum (FBS) and penicillin-streptomycin at 37 °C in 5% CO2. For BacMam transduction, cells were resuspended in media at a density of 52,000 cells per 100 μL. […] For each experiment 4.24 × 10^8 viral genes of arrestin virus were added to each well. For multiplex experiments, 4.79 × 10^8 viral genes of the Red DAG sensor or 6.18 × 10^8. Viral genes of the Red cADDis (cAMP) sensor were added with the arrestin sensor. For experiments with the R-GECO sensor, 8.46 × 10^8 viral genes were added to each well. The viruses carrying the AT1 and V2 receptors were added such that 2.12 × 10^8 and 3.04 × 10^8 viral genes went into each well, respectively. For the β2-adrenoceptor experiment, 4.28 × 10^8 viral genes for the receptor and 2.13 × 10^8 viral genes of GPCR kinase 2 were added to each well.
# [5] = system: β2-adrenoceptor; assay: Arrestin sensor response via the β2-adrenoceptor; assay type: cell-based; details: 10 μM isoproterenol; cells also transduced with GPCR kinase 2; n = 4; Biotek Synergy Mx
# Procedure: HEK 293 T cells were cultured in Eagle’s minimum essential media (EMEM) supplemented with 10% fetal bovine serum (FBS) and penicillin-streptomycin at 37 °C in 5% CO2. For BacMam transduction, cells were resuspended in media at a density of 52,000 cells per 100 μL. […] For each experiment 4.24 × 10^8 viral genes of arrestin virus were added to each well. For multiplex experiments, 4.79 × 10^8 viral genes of the Red DAG sensor or 6.18 × 10^8. Viral genes of the Red cADDis (cAMP) sensor were added with the arrestin sensor. For experiments with the R-GECO sensor, 8.46 × 10^8 viral genes were added to each well. The viruses carrying the AT1 and V2 receptors were added such that 2.12 × 10^8 and 3.04 × 10^8 viral genes went into each well, respectively. For the β2-adrenoceptor experiment, 4.28 × 10^8 viral genes for the receptor and 2.13 × 10^8 viral genes of GPCR kinase 2 were added to each well. The cell/transduction mixture was then seeded into 96-well plates and incubated for ~24 hours at 37 °C in 5% CO2. Thirty minutes prior to fluorescence plate reader or imaging experiments, the media in each well was replaced with 150 μL of Dulbecco’s phosphate buffered saline (DPBS) supplemented with Ca^2+ (0.9 mM) and Mg^2+ (0.5 mM).
# Fluorescence plate reader experiments were performed on the BioTek Synergy Mx (BioTek, Winooski, VT) and BMG CLARIOstar (BMG Labtech, Cary, NC) in 96 well plates.
# [6] = target: angiotensin AT1 receptor (UniProt P30556); assay: conformation-sensitive fluorescent arrestin biosensor in live cells; as a1, concentration-response with the agonist TRV026 (TRV120026)
# [7] = target: angiotensin AT1 receptor (UniProt P30556); assay: conformation-sensitive fluorescent arrestin biosensor in live cells; as a6, 32 μM TRV120045
# [8] = target: angiotensin AT1 receptor (UniProt P30556); assay: conformation-sensitive fluorescent arrestin biosensor in live cells; as a1, concentration-response with the agonist TRV045 (TRV120045)
# [9] = target: angiotensin AT1 receptor (UniProt P30556); assay: conformation-sensitive fluorescent arrestin biosensor in live cells; HEK 293 T cells with sensor and AT1 receptor; single maximally-stimulating concentration, 32 μM AngII; time course fit to the association exponential, kτ = Plateau x kobs; ΔF/F normalised to baseline; Biotek Synergy Mx (Fig. 5a) or BMG CLARIOstar (Fig. 1b)
# [10] = target: angiotensin AT1 receptor (UniProt P30556); assay: conformation-sensitive fluorescent arrestin biosensor in live cells; HEK 293 T cells with sensor and AT1 receptor; AngII 10 nM-32 μM; time courses fit to the association exponential, Plateau x kobs against concentration fit to a sigmoid, kτ is its top; DPBS with Ca2+ and Mg2+; Biotek Synergy Mx
# [11] = target: angiotensin AT1 receptor (UniProt P30556); assay: conformation-sensitive fluorescent arrestin biosensor in live cells; as a6, 32 μM TRV120026
# [12] = target: angiotensin AT1 receptor (UniProt P30556); assay: conformation-sensitive fluorescent arrestin biosensor in live cells; as a1, concentration-response with the agonist TRV055 (TRV120055)
# [13] = target: angiotensin AT1 receptor (UniProt P30556); assay: conformation-sensitive fluorescent arrestin biosensor in live cells; as a6, 32 μM SII
# [14] = target: angiotensin AT1 receptor (UniProt P30556); assay: conformation-sensitive fluorescent arrestin biosensor in live cells; as a6, 32 μM TRV120055
# [15] = target: angiotensin AT1 receptor (UniProt P30556); assay: conformation-sensitive fluorescent arrestin biosensor in live cells; as a1, concentration-response with the agonist SII
compound,measurement,setting,value
parathyroid hormone [PTH],persistent signaling (in words),[1],persistent signaling
"[sarcosine^1, Ile^4, Ile^8]AngII (peptide)",KA from the operational model fit of the arrestin sensor concentration-response at the single time point 1 min,[2],1200 nM
same,KA from the operational model fit of the arrestin sensor concentration-response at the single time point 20 min,[2],530 nM
"CC[C@H](C)[C@H](NC(=O)[C@@H]1CCCN1C(=O)[C@H](Cc1c[nH]cn1)NC(=O)[C@@H](NC(=O)[C@@H](NC(=O)[C@@H](NC(=O)[C@H](CCCNC(=N)N)NC(=O)CNC)C(C)C)[C@@H](C)CC)[C@@H](C)CC)C(=O)O [SII, [sarcosine^1, Ile^4, Ile^8]AngII]","kτ (% AngII), calcium",[3],12 % AngII
same,"kτ (% AngII), arrestin (single concentration)","[4]; 32 μM, mean kτ of ligand divided by that for AngII",49 % AngII
same,"Emax, 1 minute time point","[4]; 1 min (rise phase), sigmoid fit, representative experiments",64 % Ang II
same,"Emax, 20 minute time point","[4]; 20 min (plateau), sigmoid fit, representative experiments",88 % Ang II
same,EC50,"[4]; EC50, 1 minute time point, 1 min (rise phase), sigmoid fit, representative experiments",620 nM
same,EC50,"[4]; EC50, 20 minute time point, 20 min (plateau), sigmoid fit, representative experiments",210 nM
same,Kd,"[4]; calculated from the mean pKA value, L50 of Plateau × kobs vs concentration curve, read-out: KA",1100 nM
same,"kτ (% AngII), arrestin (concentration-response)","[4]; concentration-response method, mean kτ of ligand divided by that for AngII",48 % AngII
same,"Emax, kinetic model initial rate","[4]; concentration-response of the initial rate, repeated from Table 1 in Supplementary Table S2",48 % Ang II
CC(C)NCC(O)c1ccc(O)c(O)c1 (stereo not shown) [isoproterenol],"ΔF/F, β2-adrenoceptor",[5],0.84
arrestin-3 (β-arrestin2) fluorescent biosensor incorporating mNeonGreen (from UniProt P32121 1-409),kτ (initial rate of arrestin recruitment) with TRV026,[6],0.25 NFU.min^-1
same,kτ (initial rate of arrestin recruitment) with 32 μM TRV120045,[7],0.38 NFU.min^-1
same,kτ (initial rate of arrestin recruitment) with TRV045,[8],0.36 NFU.min^-1
same,kτ (initial rate of arrestin recruitment) with 32 μM AngII,[9],0.4 NFU.min^-1
same,t1/2 of arrestin recruitment (0.693/kobs) with 32 μM AngII,[9],45 s
same,ΔF/F (fluorescence after agonist divided by baseline) with 32 µM AngII,[9],0.56
same,kτ (initial rate of arrestin recruitment) with AngII,[10],0.41 NFU.min^-1
same,kτ (initial rate of arrestin recruitment) with 32 μM TRV120026,[11],0.25 NFU.min^-1
same,kτ (initial rate of arrestin recruitment) with TRV055,[12],0.38 NFU.min^-1
same,kτ (initial rate of arrestin recruitment) with 32 μM SII,[13],0.2 NFU.min^-1
same,kτ (initial rate of arrestin recruitment) with 32 μM TRV120055,[14],0.37 NFU.min^-1
same,kτ (initial rate of arrestin recruitment) with SII,[15],0.2 NFU.min^-1
